# Patent US20090196880A1 (VASGENE THERAPEUTICS, published 2009)
# T1: EphB4 in whole cell lysate of 293 cells stably transfected with EphB4 (human, UniProt P54760 16-987)
# T1 construct: Denatured protein from the lysate of transfected 293 cells (Western blot)
# T1 sequence: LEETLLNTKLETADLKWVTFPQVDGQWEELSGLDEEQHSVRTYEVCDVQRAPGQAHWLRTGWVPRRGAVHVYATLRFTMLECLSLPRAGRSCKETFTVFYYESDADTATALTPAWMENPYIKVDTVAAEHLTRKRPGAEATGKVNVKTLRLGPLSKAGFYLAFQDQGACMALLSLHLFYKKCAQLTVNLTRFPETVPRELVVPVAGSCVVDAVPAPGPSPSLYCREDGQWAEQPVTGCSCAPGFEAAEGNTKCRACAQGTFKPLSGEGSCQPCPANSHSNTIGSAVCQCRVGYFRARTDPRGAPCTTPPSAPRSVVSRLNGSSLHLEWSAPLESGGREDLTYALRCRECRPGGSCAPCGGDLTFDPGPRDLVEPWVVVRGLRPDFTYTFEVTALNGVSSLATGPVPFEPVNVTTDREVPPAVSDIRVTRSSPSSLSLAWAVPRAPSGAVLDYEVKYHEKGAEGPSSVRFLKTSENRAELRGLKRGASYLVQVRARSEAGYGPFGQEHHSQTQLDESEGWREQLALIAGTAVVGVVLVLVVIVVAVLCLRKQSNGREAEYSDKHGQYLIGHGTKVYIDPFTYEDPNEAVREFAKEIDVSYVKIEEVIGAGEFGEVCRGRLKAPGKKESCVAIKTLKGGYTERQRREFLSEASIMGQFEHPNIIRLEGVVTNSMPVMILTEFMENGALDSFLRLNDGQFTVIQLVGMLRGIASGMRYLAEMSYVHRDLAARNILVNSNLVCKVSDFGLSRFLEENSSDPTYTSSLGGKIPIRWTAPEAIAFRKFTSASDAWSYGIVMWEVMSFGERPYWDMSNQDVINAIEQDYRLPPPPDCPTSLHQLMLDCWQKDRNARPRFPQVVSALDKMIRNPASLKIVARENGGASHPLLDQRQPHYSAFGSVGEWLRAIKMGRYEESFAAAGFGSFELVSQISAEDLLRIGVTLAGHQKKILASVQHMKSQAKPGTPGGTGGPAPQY
# Target: T1, EphB4 in whole cell lysate of 293 cells …
# Assay: Western blot on lysate of EphB4-transfected 293 cells
row,Binder,binding result
1,"mouse monoclonal antibody #131 (antibody, V domains shown, also called m131) VH: QVQLKQSGAELVKPGASVKISCKASGYTFTDYYINWVKQRPGQGLEWIGKIGPRIGTNYYNENFKGKATLTADISSNTAYMQLHTLTSEDSAVYFCARSEDYSGYVSYALDYWGQGTSVTVSS VL: NIVMTQSPKSMSMSVGERVTLSCKASENVDTYVSWYQQKPDQSPELLIYGASNRYTGVPDRFTGSGSATDFTLTISSVQAEDLADYHCGQTYRYPFTFGGGTKLEIK",binds
2,"mouse monoclonal antibody #47 (antibody, V domains shown, also called m47; Mu #47) VH: EVQLQQSGPELVKPGASVKISCKASGYTFTDYYMNWVKQSHGKGLEWIGDNNPNNGGTTYNQKFKGKATLTVDKSSSTAYMELRSLTSEDSAVYYCARGKYYGTSYGWYFDVWGTGTTVTVSS VL: DIQMTQSPASLSASVGETVTITCRISDNIDSYLAWFQQKQGKSPQLLVYDATVLADGVPSRFSGSGSGTQYSLKINSLQSEDAARYYCQVYYSIPWTFGGGTKLEIK",binds
